The values that follow come from patent CN113072642A (FUZHOU MAIXIN BIOTECHNOLOGY DEV CO LTD, dated 2021).

The test concerns the target T1, OCT3/4蛋白 (in tissue sections, immunohistochemistry) (human, UniProt Q01860 1-360, limits assumed).
T1 construct: Endogenous antigen in tumour and normal tissue chips; also called OCT3/4抗原
The experiment in a line: immunohistochemistry on tumour tissue chip.

T1 sequence (Q01860 whole entry): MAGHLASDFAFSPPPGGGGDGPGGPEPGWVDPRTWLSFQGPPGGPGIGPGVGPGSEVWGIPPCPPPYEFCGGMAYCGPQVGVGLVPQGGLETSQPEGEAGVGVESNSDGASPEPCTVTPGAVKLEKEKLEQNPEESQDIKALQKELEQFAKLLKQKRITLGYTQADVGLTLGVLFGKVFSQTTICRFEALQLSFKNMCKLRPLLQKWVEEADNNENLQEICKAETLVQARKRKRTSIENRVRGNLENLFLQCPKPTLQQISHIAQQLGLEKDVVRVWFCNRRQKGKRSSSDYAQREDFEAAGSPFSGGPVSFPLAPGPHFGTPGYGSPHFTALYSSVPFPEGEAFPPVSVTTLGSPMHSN

B1: 41B1细胞株所分泌的抗OCT3/4蛋白单克隆抗体 (antibody, mouse IgG2b, V domains shown)
VH: VKLQESGGGLVKPGGSLKLSCTASGFTFSTYAMSWVRQTPEKRLEWVAAINSNGGNTYYPDTVKDRFTISRDNAKNTLYLQMSSLRSDDTALYYCARDGYDYWGQGTTLTVSS
VL: DIVMTQDELSLPVSLGDQASISCRSSQSLVHSNGVTYLFWHLQRPGQSPKLLIYRVSNRFSGVPDRFSGSGSGTDFTLKISRVEAEDLGVYFCFQGTHVPFTFGTGTKLEIK
notes: also called OCT3/4(41B1); 41B1分泌的OCT3/4
As to B1, the binding result was “binds”.
